The source of these data is patent US20220324969A1 (MYTHIC THERAPEUTICS, published 2022).

B1: MYT2628 (antibody, V domains shown)
VH: QVQLQQPGAEVVKPGASVKMSCKASGYTFTSYYIHWIKQTPGQGLEWVGVIYPGNDDISYNQKFQGKATLTADKSSTTAYMQLSSLTSEDSAVYYCAREVRLRYFDVWGQGTTVTVSS
VL: EIVLTQSPGSLAVSPGERVTMSCKSSQSVFFSSSHKNYLAWYQQIPGQSPRLLIYWASTRESGVPDRFTGSGSGTDFTLTISSVQPEDLAIYYCHQYLSSRTFGQGTKLEIK
notes: IgG; IMGN779 VL variant #12 (Q35H)
B2: MYT2637 (antibody, V domains shown)
VH: QVQLQQPGAEVVKPGASVKMSCKASGYTFTSYYIHWIKQTPGQGLEWVGVIYPGNDDISYNQKFQGKATLTADKSSTTAYMQLSSLTSEDSAVYYCAREVRLRYFDVWGQGTTVTVSS
VL: EIVLTQSPGSLAVSPGERVTMSCKSSQSVFFSSSQKNYLAWYQQIPGQSPRLLIYWASHRESGVPDRFTGSGSGTDFTLTISSVQPEDLAIYYCHQYLSSRTFGQGTKLEIK
notes: IgG; IMGN779 VL variant #21 (T59H)
B3: MYT2643 (antibody, V domains shown)
VH: QVQLQQPGAEVVKPGASVKMSCKASGYTFTSYYIHWIKQTPGQGLEWVGVIYPGNDDISYNQKFQGKATLTADKSSTTAYMQLSSLTSEDSAVYYCAREVRLRYFDVWGQGTTVTVSS
VL: EIVLTQSPGSLAVSPGERVTMSCKSSQSVFFSSSQKNYLAWYQQIPGQSPRLLIYWASTRESGVPDRFTGSGSGTDFTLTISSVQPEDLAIYYCHQHLSSRTFGQGTKLEIK
notes: IgG; IMGN779 VL variant #27 (Y97H)
B4: MYT2631 (antibody, V domains shown)
VH: QVQLQQPGAEVVKPGASVKMSCKASGYTFTSYYIHWIKQTPGQGLEWVGVIYPGNDDISYNQKFQGKATLTADKSSTTAYMQLSSLTSEDSAVYYCAREVRLRYFDVWGQGTTVTVSS
VL: EIVLTQSPGSLAVSPGERVTMSCKSSQSVFFSSSQKNHLAWYQQIPGQSPRLLIYWASTRESGVPDRFTGSGSGTDFTLTISSVQPEDLAIYYCHQYLSSRTFGQGTKLEIK
notes: IgG; IMGN779 VL variant #15 (Y38H)
B5: MYT2642 (antibody, V domains shown)
VH: QVQLQQPGAEVVKPGASVKMSCKASGYTFTSYYIHWIKQTPGQGLEWVGVIYPGNDDISYNQKFQGKATLTADKSSTTAYMQLSSLTSEDSAVYYCAREVRLRYFDVWGQGTTVTVSS
VL: EIVLTQSPGSLAVSPGERVTMSCKSSQSVFFSSSQKNYLAWYQQIPGQSPRLLIYWASTRESGVPDRFTGSGSGTDFTLTISSVQPEDLAIYYCHHYLSSRTFGQGTKLEIK
notes: IgG; IMGN779 VL variant #26 (Q96H)
B6: MYT2641 (antibody, V domains shown)
VH: QVQLQQPGAEVVKPGASVKMSCKASGYTFTSYYIHWIKQTPGQGLEWVGVIYPGNDDISYNQKFQGKATLTADKSSTTAYMQLSSLTSEDSAVYYCAREVRLRYFDVWGQGTTVTVSS
VL: EIVLTQSPGSLAVSPGERVTMSCKSSQSVFFSSSQKNYLAWYQQIPGQSPRLLIYWASTRESGVPDRFTGSGSGTDFTLTISSVQPEDLAIYYCAQYLSSRTFGQGTKLEIK
notes: IgG; IMGN779 VL variant #25 (H95A)
B7: MYT2630 (antibody, V domains shown)
VH: QVQLQQPGAEVVKPGASVKMSCKASGYTFTSYYIHWIKQTPGQGLEWVGVIYPGNDDISYNQKFQGKATLTADKSSTTAYMQLSSLTSEDSAVYYCAREVRLRYFDVWGQGTTVTVSS
VL: EIVLTQSPGSLAVSPGERVTMSCKSSQSVFFSSSQKHYLAWYQQIPGQSPRLLIYWASTRESGVPDRFTGSGSGTDFTLTISSVQPEDLAIYYCHQYLSSRTFGQGTKLEIK
notes: IgG; IMGN779 VL variant #14 (N37H)
B8: MYT2640 (antibody, V domains shown)
VH: QVQLQQPGAEVVKPGASVKMSCKASGYTFTSYYIHWIKQTPGQGLEWVGVIYPGNDDISYNQKFQGKATLTADKSSTTAYMQLSSLTSEDSAVYYCAREVRLRYFDVWGQGTTVTVSS
VL: EIVLTQSPGSLAVSPGERVTMSCKSSQSVFFSSSQKNYLAWYQQIPGQSPRLLIYWASTREHGVPDRFTGSGSGTDFTLTISSVQPEDLAIYYCHQYLSSRTFGQGTKLEIK
notes: IgG; IMGN779 VL variant #24 (S62H)
B9: MYT2634 (antibody, V domains shown)
VH: QVQLQQPGAEVVKPGASVKMSCKASGYTFTSYYIHWIKQTPGQGLEWVGVIYPGNDDISYNQKFQGKATLTADKSSTTAYMQLSSLTSEDSAVYYCAREVRLRYFDVWGQGTTVTVSS
VL: EIVLTQSPGSLAVSPGERVTMSCKSSQSVFFSSSQKNYLAWYQQIPGQSPRLLIYHASTRESGVPDRFTGSGSGTDFTLTISSVQPEDLAIYYCHQYLSSRTFGQGTKLEIK
notes: IgG; IMGN779 VL variant #18 (W56H)
B10: MYT2639 (antibody, V domains shown)
VH: QVQLQQPGAEVVKPGASVKMSCKASGYTFTSYYIHWIKQTPGQGLEWVGVIYPGNDDISYNQKFQGKATLTADKSSTTAYMQLSSLTSEDSAVYYCAREVRLRYFDVWGQGTTVTVSS
VL: EIVLTQSPGSLAVSPGERVTMSCKSSQSVFFSSSQKNYLAWYQQIPGQSPRLLIYWASTRHSGVPDRFTGSGSGTDFTLTISSVQPEDLAIYYCHQYLSSRTFGQGTKLEIK
notes: IgG; IMGN779 VL variant #23 (E61H)
B11: MYT2638 (antibody, V domains shown)
VH: QVQLQQPGAEVVKPGASVKMSCKASGYTFTSYYIHWIKQTPGQGLEWVGVIYPGNDDISYNQKFQGKATLTADKSSTTAYMQLSSLTSEDSAVYYCAREVRLRYFDVWGQGTTVTVSS
VL: EIVLTQSPGSLAVSPGERVTMSCKSSQSVFFSSSQKNYLAWYQQIPGQSPRLLIYWASTHESGVPDRFTGSGSGTDFTLTISSVQPEDLAIYYCHQYLSSRTFGQGTKLEIK
notes: IgG; IMGN779 VL variant #22 (R60H)
B12: MYT2636 (antibody, V domains shown)
VH: QVQLQQPGAEVVKPGASVKMSCKASGYTFTSYYIHWIKQTPGQGLEWVGVIYPGNDDISYNQKFQGKATLTADKSSTTAYMQLSSLTSEDSAVYYCAREVRLRYFDVWGQGTTVTVSS
VL: EIVLTQSPGSLAVSPGERVTMSCKSSQSVFFSSSQKNYLAWYQQIPGQSPRLLIYWAHTRESGVPDRFTGSGSGTDFTLTISSVQPEDLAIYYCHQYLSSRTFGQGTKLEIK
notes: IgG; IMGN779 VL variant #20 (S58H)
B13: MYT2635 (antibody, V domains shown)
VH: QVQLQQPGAEVVKPGASVKMSCKASGYTFTSYYIHWIKQTPGQGLEWVGVIYPGNDDISYNQKFQGKATLTADKSSTTAYMQLSSLTSEDSAVYYCAREVRLRYFDVWGQGTTVTVSS
VL: EIVLTQSPGSLAVSPGERVTMSCKSSQSVFFSSSQKNYLAWYQQIPGQSPRLLIYWHSTRESGVPDRFTGSGSGTDFTLTISSVQPEDLAIYYCHQYLSSRTFGQGTKLEIK
notes: IgG; IMGN779 VL variant #19 (A57H)
B14: MYT2632 (antibody, V domains shown)
VH: QVQLQQPGAEVVKPGASVKMSCKASGYTFTSYYIHWIKQTPGQGLEWVGVIYPGNDDISYNQKFQGKATLTADKSSTTAYMQLSSLTSEDSAVYYCAREVRLRYFDVWGQGTTVTVSS
VL: EIVLTQSPGSLAVSPGERVTMSCKSSQSVFFSSSQKNYHAWYQQIPGQSPRLLIYWASTRESGVPDRFTGSGSGTDFTLTISSVQPEDLAIYYCHQYLSSRTFGQGTKLEIK
notes: IgG; IMGN779 VL variant #16 (L39H)
B15: MYT2629 (antibody, V domains shown)
VH: QVQLQQPGAEVVKPGASVKMSCKASGYTFTSYYIHWIKQTPGQGLEWVGVIYPGNDDISYNQKFQGKATLTADKSSTTAYMQLSSLTSEDSAVYYCAREVRLRYFDVWGQGTTVTVSS
VL: EIVLTQSPGSLAVSPGERVTMSCKSSQSVFFSSSQHNYLAWYQQIPGQSPRLLIYWASTRESGVPDRFTGSGSGTDFTLTISSVQPEDLAIYYCHQYLSSRTFGQGTKLEIK
notes: IgG; IMGN779 VL variant #13 (K36H)

The experiment deals with CD33 (Sino Biological, Cat #12238-H08H) (UniProt P20138 18-259). As to the kind of experiment: BLI, IgG captured on anti-human Fc sensor, 50 nM CD33, pH 7.4 vs pH 5.4. (In general: BLI is a label-free optical method that tracks binding on a fibre tip over time.)
Chain of CD33 (Sino Biological, Cat #12238-H08H) (P20138 18-259 limits assumed): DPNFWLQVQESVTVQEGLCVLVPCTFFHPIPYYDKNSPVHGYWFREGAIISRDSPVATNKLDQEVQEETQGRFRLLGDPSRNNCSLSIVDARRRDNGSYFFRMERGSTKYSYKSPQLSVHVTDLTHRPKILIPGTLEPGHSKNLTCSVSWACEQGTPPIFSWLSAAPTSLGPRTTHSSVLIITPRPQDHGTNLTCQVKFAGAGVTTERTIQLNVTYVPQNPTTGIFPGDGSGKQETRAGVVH
Turning to B1, the binding result is “binds”. With B2, the binding result is given as “binds”. Next, B3: “binds”; B4: “binds”. With B5, the binding result was “binds”. B6: the binding result is “binds”.

Take B7: the binding result is on record as “binds”. For the molecule B8, the binding result is on record as “binds”. With B9, the binding result is reported as “binds”. Next, B10: “binds”; B11: “binds”; B12: “binds”.

With B13, the binding result was “binds”. B14: the binding result is on record as “binds”. Take B15: the binding result was “binds”.
